Measurements from paper doi:10.1101/2022.04.02.486822v1.
Where a chain is given by its changes, count along the chain named. Numbers in names are those of the source.

B1: EcGhrA (Escherichia coli K-12; W45F) (protein)
chain: MDIIFYHPTFDTQWWIEALRKAIPQARVRAWKSGDNDSADYALVFHPPVEMLAGRDLKAVFALGAGVDSILSKLQAHPEMLNPSVPLFRLEDTGMGEQMQEYAVSQVLHWFRRFDDYRIQQNSSHWQPLPEYHREDFTIGILGAGVLGSKVAQSLQTWRFPLRCWSRTRKSWPGVQSFAGREELSAFLSQCRVLINLLPNTPETVGIINQQLLEKLPDGAYLLNLARGVHVVEDDLLAALDSGKVKGAMLDVFNREPLPPESPLWQHPRVTITPHVAAITRPAEAVEYISRTIAQLEKGERVCGQVDRARGY
B2: EcGhrA (Escherichia coli K-12) (protein)
chain: B1 chain with F45W

What was measured:
Test in all cases: purified protein
Settings in all cases: 200 µM NADPH, 50 mM HEPES, pH 7.5, 22 °C
purified protein [1] = substrate: O=CC(=O)O; format: biochemical, Escherichia coli
purified protein [2] = substrate: N=C(N)NCCCC(=O)C(=O)O
purified protein [3] = substrate: O=C(O)CC(=O)C(=O)O
purified protein [4] = substrate: O=C(O)CCC(=O)C(=O)O
purified protein [5] = substrate: O=CC(=O)O

Row | Protein | Km (purified protein [1]) | kcat (purified protein [1]) | Km (purified protein [2]) | kcat (purified protein [2]) | Km (purified protein [3]) | kcat (purified protein [3]) | Km (purified protein [4]) | kcat (purified protein [4]) | Km (purified protein [5]) | kcat (purified protein [5])
1 | B1 | 10.8 ± 6.1 mM | 120.0 ± 63.0 s⁻¹ | 43.2 ± 8.4 mM | 4.0 ± 0.7 s⁻¹ | 6.3 ± 0.2 mM | 1.8 ± 0.04 s⁻¹ | 11.5 ± 0.8 mM | 0.26 ± 0.01 s⁻¹ | – | –
2 | B2 | – | – | 8.8 ± 0.8 mM | 6.6 ± 0.4 s⁻¹ | 1.3 ± 0.2 mM | 1.9 ± 0.1 s⁻¹ | 4.0 ± 0.4 mM | 0.30 ± 0.02 s⁻¹ | 2.2 ± 1.7 mM | 40.0 ± 23.0 s⁻¹
